Laboratory results published in the DeepSol protein solubility set.

assay: soluble on expression in E. coli; label from the status in PepcDB or PDB records

Soluble on expression in E. coli, not soluble:
MGSDKIHHHHHHMMKISFIIATLNSGGAERALVTLANALCKEHEVSIIKFHAGESFYKLENEVKVTSLEQFRFDTLYHKIASRFKKFFALRKALKESKSDVFISFLDTTNIACIAAKIGLKTPLIISEHSNEAYLKPKIWRFLRRVSYPFCDALSVLGSSDKVYYERFVKRVKLLLNPCHFSDEISFDSSFEKENLVLFIGRLDHNKNPVMFLKAIAHLDKNLQENYKFVIAGDGQLRQELEYKVKSLGIKVDFLGRVENVKALYEKAKVLCLCSFVEGLPTVLIESLYFEVCRISSSYYNGAKDLIKDNHDGLLVGCDDEIALAKKLELVLNDENFRKELVNNAKQRCKDFEISHIKEEWLKLIAEVKNA
MGSDKIHHHHHHMMKQIIAMAGGGFSMEPDNLSLDQYILNQSKREQHRICFLPTASGDSQNYIQRFYHAFQTLDCVPSHLSLFKPPSSDLVSFVMEMDVIYVGGGNTRNLLVLWKEWGLDHILREAWKNGVVVAGISAGAICWFEEGVTDSAGPLTSLKSLGFLQGSFCPHYDGEKDRRPAYHQLISNKFLCSGYAADDGAALHFINDQLFQTVSSRSGAKAYRVMMAEHEIAEIPLPVKYVRVKLAEYYLYSSFFQIDFMIR
MGSDKIHHHHHHMMKSIILIVLDGLGDRPGSDLQNRTPLQAAFRPNLNWLASHGINGIMHPISPGIRCGSDTSHMSLLGYDPKVYYPGRGPFEALGLGMDIRPGDLAFRANFATNRDGVIVDRRAGRENKGNEELADAISLDMGEYSFRVKSGVEHRAALVVSGPDLSDMIGDSDPHREGLPPEKIRPTDPSGDRTAEVMNAYLEEARRILSDHRVNKERVKNGRLPGNELLVRSAGKVPAIPSFTEKNRMKGACVVGSPWLKGLCRLLRMDVFDVPGATGTVGSNYRGKIEKAVDLTSSHDFVLVNIKATDVAGHDGNYPLKRDVIEDIDRAMEPLKSIGDHAVICVTGDHSTPCSFKDHSGDPVPIVFYTDGVMNDGVHLFDELSSASGSLRITSYNVMDILMQLAGRSDKFGS
MGSDKIHHHHHHMMLGNIAYMNPWWEGKEDYHVKLWKNQKIRWEPNWVREISLKPFSLNFILGPRQVGKTTGIKLLIQKILENNPPESVLYLNLEVLPTYRDLLEIIREFQELKKEERIKTGYIFLDEASSLEGWWRGIKPLIDAGLLENDVVTVTGSSSLRVRRDIEMFPGRRGEGKTLEIMPLSFPEYIKVMGLKKHRLESTKVLKLFDKYIQTGGFPGSINGFPMEDLLGAYIGEFVRFGKSLEIAKETLAALIRSAPSATSFRALAEMTSGYSYKVIQDYIEFFRDIYILGIAYLKEDNQVMYRREKKFFFRDPLLARLFSLWSGVEVREDALYEWIVQEHVFRRFGEVYYFRNSYEVDVIADNLKIEVKAGKAHRKYPRGVLVLEKDDIPFFLIEYYWTGLK
MGSDKIHHHHHHMMNKPAPRELEVIRSTYITPHMLRITLGGAGLAGFPADQESAYIKLLFPQAGERPLMRTYTIRQQRDDEIDVDFVLHDTDGPASSWAKTAQVGELIQIGGPGLKKLINFEADWFLLAGDMTALPAISVNLAKLPNNAVGYAVIEVLSEADIQPLVHPEHVELHWVINPEADPEGRPLVERIAQLPWLAGEPAVWIACEFNSMRALRRHFKQAHALPKSHFYTSSYWKIGCNEGEHKLVKQEDEQLENGASV
MGSDKIHHHHHHMMSQEQNDLITRVGPGTPCGKLMRAYWQPAALVDELEGERPIKPVRLLGEDLVLFKDETGRYGLIDRDCPHRGADLAFGRLENGGLRCAFHGWLFDVDGKCIDTPAEPAGSPLCKNIKQRAFPVVAKGGILWAYLGAGEPPAFPEIDCFIAPDTHVFAFKGLMECNWLQALEVGIDPAHASFLHRFFEDEDTSQAYGKQFRGASAGSDLPMTKVLREYDRPIINVEHTEYGLRLIALREIDDERTHVRVTNQLFPHGFVIPMSTEMTITQWHVPVDDTHCYWYAIFTSYAAPVDKVKMRDQRLELYELPNYKSRRNKTNDYGFDPHEQATATYTGMGLDINVHDQWAVESMGAIQDRTREHLGQSDKAIIQYRRLLRQEIEKAASGGKPLLALDEAAARAIQGPATMDGIGPSRGWETYWMEVDVKRRRGAPWAVPVPSEIAAKVPHLTAAE
MGSDKIHHHHHHMMYTNDNRIVMTLDAGGTNFVFSAIQGGKEIADPVVLPACADCLDKCLGNLVEGFKAIQAGLPEAPVAISFAFPGPADYQAGIIGDLPNFPSFRGGVALGPFLEDIFGIPVFINNDGSLFAYGEALTGVLPEINRRLREAGSTKRYKNLLGVTLGTGFGAGVVIDGELLRGDNAAGGYVWCLRNKKYPEYIVEESVSIRAVMRVYAERSGDAGARTPKEIFEIAEGIRPGNREAAIAAFEELGEMAGDALASAITLIDGLIVIGGGLSGASKYILPVLLKEMNAQTGMMDGARFGRLQKEVYDLDEEKSFAGFARGEAVEVLVPGTNRKVGYDPCKRIGVTFSKQGANRSIAMGAYVFALNHLSK
MGSDKIHHHHHHMNAALWISKTGLDAQTKDIAVISNNLANASTIGFKKSRAVFEDLLYQNINQPGGRTAQDTEAPSGLMLGAGTKVVATQKIHTQGDMITSDNALDLMIQGEGFFEIQMPDGSSAYSRNGQFTMDDEGNMVTPGAGYMIQPQVTIPEDALSIIVSQDGEVSVTLQGQPDPAVVGQINLINFVNPTGLQPIGQNLYTETAVSGAPQEGVPGLEGYGMLVQGALETSNVNTTEELVNLIESQRVYEMNSKVISAVDEMLSYINQQM
MGSDKIHHHHHHMNARTLDPTERLIEKEPYYEPVGEEIALFEAAYRQRIPVLLKGPTGCGKTRFMEHMAWRLQRPLITVSCHDDLTASDLVGRYLVKGGETVWVDGPLTRAVRCGGICYLDEIVEARKDTMVVIHPLADDRRTLAMEKLGQMLEAPAEFCLAISYNPGYQSVLKDLKQSTRQRFVALEFDYPSAALEQRIVATESGVSDAVADKLVRFAQMTRNLKGSGLEEGASTRLLVHAGKLISDGISPVTACKSAVAQAVTDDADMLKAIQELSSSVF
MGSDKIHHHHHHMNAVLPRLAMRDIVKSFGSVRVLDGVSLDVMPGEIVALLGSNGAGKSTLMKILTANYTKNAGDIRVNDTLVDFASPRDAARVGITFLPQEISVFPELSVAENICMSADSKGTVDWSGMARRSAAVLDDLGFGHLSPDMLVADLPVAERRIIEIARALEGQADILVMDEPTASLSEQESEQIFTILRRLKDRGTSIVYISHYLKEVFEISDRIVVLRDGLNAGEFDPTTADVTKVVGAMLGKAAGSMFDDRDPLPASAPVVFTCAGLTLPGVIEDVSFDLRAGEILGIFGLIGSGVEVLGRAIFGTQGRPPAGAMTLNGTPYTPVSPRKGKEAGIGFVTAERKTDGIMADMSVRENIVAAFQSDLGHGPFTSPAREAAHTLDWIEKLGIKTSGPEQAIRLLSGGNQQKVCVARWLNPKVKMLILEEPTRGVDVGARREIYSHLVDFARSGLAVLVLSSDVEEVAGLSDRSLVIDRGRILAEFGRGATPGDLMAASAQSEHHD
MGSDKIHHHHHHMNDINLLPLTSAYLDLILEWRNNPEVRRNMYTSHVISKAEHYAWFKKLESDNTKQCFIFVLNGVPSGFISFVDINLNSKSATWAFYSGNTSVRGIGSLMEVSALNYAFSTLGLHKLSCEVLEFNNMVVRFHEKYGFHVEGVFKKHHFSEGEYWDIYRLAIFNEEWARCKLEINLKKQSISPGSSYRENVFFTNENIIGFSALSGDCNQIHLNKQYAIKNGFDNNLVHGFLVGSVFSKVFGTRFPGDGCIYISQSLSFLSPVYPDDLLEASFVVLSKIGRKLVVETSITNLHSNKKVIDGVAELLISMDSQIGYLNQYL
MGSDKIHHHHHHMNDQLTEYRIKKAPYYRATGDETELYEAAYSVRMPMMLKGPTGCGKTRFVEYMAYKLGKPLITVACNEDMTASDLVGRFLLDPQGTRWQDGPLTLAARLGAICYLDEVVEARQDTTVVIHPLTDNRRVLPLEKKGELVQAHPDFQLVISYNPGYQSLMKDLKQSTKQRFGALDFNYPDHEIEAEIVSHETGVNKEVADKLVSIAERARNLKGHGLDEGISTRMLVYAGSLINKGVEAKAACRVTLVRPITDDPDMRDALDAAVTTYF
MGSDKIHHHHHHMNDWDRLYDRAETLLSRLEGLLRADAPEPEWNAAAFRWRKTGRSGFIEPVRYPDSITFEALQSIGRQKSLVDQNTRQFVRHHPANNVLLTGARGTGKSSLVKAMLNKYAADGLRLIEVEKHHLVDLPEIVEKVYRRPERFILYCDDLSFESGEPGYKALKVVLDGSIATASENVLVYATSNRRHLMPEYRVDNQDTRHTGGEIHPSEAVEEKTSLSERFGLWISFYPFDQEQYLDIVARWLAYFGIDKMDDSIREEALRWALGRGSRNGRVAWQFARDRAGREKAGQKPADKTEFRAEQ
MGSDKIHHHHHHMNEAELLDPPLETPPRPAVKVRGEPLAELPQDLYIPPDALEVFLEAFEGPLDLLLYLIRKQNLDVLDIPMAALTQQYMAYVEAARATRLELAAEYLLMAAVLIDIKSRMLLPRREQADEPGEADDPRAELVRRLLEYEQMKRAGQQLDALPQAGRDFDTVSVFLPAAAKRLPSVHAEELAAAWLAILSRAKNRTHHRIGRQELSIREHMSRILKRLTPGEFMEFKELFPEASTVHELVVTFLAVLELSKETLLDVTQAEPFAPIYVKLHESAAE
MGSDKIHHHHHHMNELVSIITPCYNSAATIRETIRSVIAQSYVNWELLIIDDCSNDDSVKIIMEFMDTDSRIYYLKTEHPSGGPTLPRNVGIQAAKGRFIAFLDSDDIWLPNKLSTQLPLFINDNVAIVYSDYEKISEEGNRTGRIVKSDPYHHYKSLLCGNELGCLTVVYDTQKIGKRYFKFIGHEDYNLWLDILKEGFIAINTNICLALYRIRKGSVSSNKLRVIKWIWHIYRVEQKKTIWLSLYYSLSDLNKSLFKYLK
MGSDKIHHHHHHMNESSTHDSVADDPTEVSTDTVLDIALSLFSELGFSDAKLEAIAKKSGMSKRMIHYHFGDKRGLYICCLEEAVRRLRPTAEEMYLASAVPVEGVRTIVEAVFHRYVQHPEAVRMLQMENLHHYGKVAEASPLSDQSAITLQLDRLLMLGQDAGAFRPGISAQDVFTLIASIAVFRINSRSTTLNLYGIDMMNGDNTDGMRRMAVDTVLAFLTSNLKSADEDSYLSRPLLSTVTEHVDEEGSYEVAADPFS
MGSDKIHHHHHHMNFLAHLHLADNSKTDLAANLAGDFAKGNIADHPKALQQGIWLHRQIDSLTDSHELTKELKAAFPKTLQRAAPILIDLAFDHMLAKYWEEYHHLSLPDFAQQAYLALSSAEQLPVNLSDLIIRMRQENWLIAYESREGLNQTIKAVSKRVSKPEIFDGAIDTVKRMDTEIEIAFRTFYPQLMAYSRIWTRQTPPEFL
MGSDKIHHHHHHMNIAFVINPVAGLGATLNLKGSDGLALEDVSKSISIVRSHRFLKKLDFNGLHFFVPSGCMGESEVSIYTKEYDVIYTPSSPTTRQDTINFVKSIESADLLVFVGGDGTARDILNSRNDLPVIGVPAGVKMYSSVFAISPERAADAVNQVAKGNYRIDKAEVVDIDEELYRKGILSVKRYGQLKVPEAQYIVENSKAEYDIAGAEDIAEYVIEHMADETYIIGPGNTCKTIEEEMGIKSNVLGFDILRNKKLIKEDASESEIYEACSDKCMLVISPVGGQNFLLGRGNKQISDRILERVGEENLIVVSSPSKAEHLKYVYIDTQIPLWSNGYVKVLVGYGRYKLVKVIR
MGSDKIHHHHHHMNITPKSIIGDIKKKNGNINRVIFTGCGASMADLYPGYYFISHESKHLLSSIMQANEFNYDTPKDVNENTIVITASLGGSTPESVEATKHARELGAHVVTLSHVPNSAIINEAEYSLVHGFEEDYAHKTEKMTLALQLAIEIVNQFEGYDYYADAQKAFEGLFNLINQEANMVAPAAEEFVTKYKDENTIYVLGSGASADVAYSTASFLFMEMQWISSPTIHSGEFFHGPFELALKDTPYLLFMSDGNTRHLDARAMAFLQRFDTKLTVIDAKDHGLASIASSNVIDYFNPMLITGVMRVYAEKLAEARQHPLTQRRYMWKLENY
